Reference: US20070041901, “Stabilized aptamers to PSMA and their use as prostate cancer therapeutics” (published 2007)

Tests used:
[1] = target: T1, PSMA (prostate-specific membrane antigen) extracellular domain (Homo sapiens, UniProt Q04609 SEQ:23-728); assay: filter; dot blot; max bound 22%
Protocol: (§1) Dot Blot Binding Analysis. Dot blot binding assays were performed throughout the selections to monitor the protein binding affinity of the pools. For initial pool screening, trace ³²P-labeled pool RNA was combined with PSMA and incubated at room temperature for 30 min in 1×SHMCK buffer pH 7.4 (20 mM Hepes pH 7.4, 120 mM NaCl, 5 mM KCl, 1 mM MgCl₂, […]) plus 0.1 mg/mL tRNA in a final volume of 30 μl. The mixture was applied to a dot blot apparatus (Schleicher and Schuell Minifold-1 Dot Blot, Acrylic, Keene, N.H.), assembled (from top to bottom) with nitrocellulose, nylon, and gel blot membranes. RNA that is bound to protein is captured on the nitrocellulose filter; whereas the non-protein bound RNA is captured on the nylon filter. […] The Round 9 pool was cloned and screened in a single point dot blot assay using 100 nM PSMA (0 nM PSMA was used as a negative control). Clone transcripts were 5′end labeled with ³²-P ATP. Likely binders were than assayed for KD determination by the blot assay conditions described directly above, but without tRNA, using an 8 point PSMA titration with a constant RNA concentration. […] Both of the clones screened were unique sequences in the Round 9 selection pool.
(§2) In order to identify the core structural elements required for ARC955 binding to PSMA, the 3′-boundaries of the clone was determined through alkaline hydrolysis.

[2] = target: T1, PSMA (prostate-specific membrane …); assay: filter; dot blot, 1x SHMCK pH 7.4 (1 mM Mg, Ca), room temp, no tRNA; conditions: label: 32P 5'-end
[3] = target: T1, PSMA (prostate-specific membrane …); assay: filter; no binding in dot blot
Protocol: as §1, §2

[4] = target: T1, PSMA (prostate-specific membrane …); assay: filter; dot blot; max bound 52%
Protocol: as §1, §2

[5] = target: T1, PSMA (prostate-specific membrane …); assay: FP filter; dot blot, nitrocellulose; max bound 33%
Protocol: as §1, §2

[6] = target: T1, PSMA (prostate-specific membrane …); assay: filter; dot blot without tRNA; conditions: hairpin with conserved 16-nt loop, A-rich asymmetric bulge
[7] = target: T1, PSMA (prostate-specific membrane …); assay: inhibition; NAALADase inhibition, 40 mM Tris pH 7.4, 0.1 mM ZnSO4, 37 C; conditions: hairpin with conserved 16-nt loop, A-rich asymmetric bulge

T1 sequence (Q04609 45-750): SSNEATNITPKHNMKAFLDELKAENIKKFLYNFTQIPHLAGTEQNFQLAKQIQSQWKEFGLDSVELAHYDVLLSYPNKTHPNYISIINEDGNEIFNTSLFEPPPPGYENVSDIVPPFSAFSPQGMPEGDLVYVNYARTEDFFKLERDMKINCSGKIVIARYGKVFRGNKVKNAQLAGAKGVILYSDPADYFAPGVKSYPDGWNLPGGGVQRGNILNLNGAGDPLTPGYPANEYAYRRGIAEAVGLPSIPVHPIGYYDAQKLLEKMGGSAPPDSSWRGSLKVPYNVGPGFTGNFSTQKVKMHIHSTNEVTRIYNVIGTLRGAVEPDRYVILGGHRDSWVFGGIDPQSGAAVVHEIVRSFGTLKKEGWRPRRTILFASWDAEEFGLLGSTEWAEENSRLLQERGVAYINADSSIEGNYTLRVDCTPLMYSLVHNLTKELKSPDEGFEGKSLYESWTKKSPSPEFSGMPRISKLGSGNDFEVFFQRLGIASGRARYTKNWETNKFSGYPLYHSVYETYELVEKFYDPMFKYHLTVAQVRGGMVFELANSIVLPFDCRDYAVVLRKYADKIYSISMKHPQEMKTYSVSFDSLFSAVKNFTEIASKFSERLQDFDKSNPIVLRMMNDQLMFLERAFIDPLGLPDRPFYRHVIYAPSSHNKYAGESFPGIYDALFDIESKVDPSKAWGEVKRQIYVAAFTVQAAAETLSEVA

## CUACUGGGUGGCUGGGAGGGGAAGAGGGAGUAG (ssRNA, 2'-OMe A, C, U; 2'-OH G (rGmH)) [ARC1089]
[1]
  Kd: 9.3 nM

B1: ARC956 (G8) (ssRNA)
RNA: GGGGAGAGGAGAGAACGUUCUACACAUGGGUCGGGUGAGUGGCAAAGGAAUAGGUCGAUCGAUCGAUCAUCGAUG
modifications: 2'-OMe A, C, U; 2'-OH G (rGmH)
[2]
  Kd: 16 nM

B2: ARC955 (G2) (ssRNA)
RNA: GGGAGAGGAGAGAACGUUCUACUAUGGGUGGCUGGGAGGGGAAGAGGGAGUAGGUCGAUCGAUCGAUCAUCGAUG
modifications: 2'-OMe A, C, U; 2'-OH G (rGmH)
[2]
  Kd: 9 nM

## CUACUACACAUGGGUCGGGUGAGUGGCAAAGGAAUAGUAG (ssRNA, 2'-OMe A, C, U; 2'-OH G (rGmH)) [ARC725]
[3]
  binding result: no binding

## AGAGGAGAGAACGUUCUACUAUGGGUGGCUGGGAGGGG (ssRNA, 2'-OMe A, C, U; 2'-OH G (rGmH)) [ARC1091]
[4]
  Kd: 3.1 nM

## GGGUGGCUGGGAGGGGAAGAGGG (ssRNA, 2'-OMe A, C, U; 2'-OH G (rGmH)) [ARC1088]
[5]
  Kd: 2.1 nM

## GGAGGACCGAAAAAGACCUGACUUCUAUACUAAGUCUACGUUCCUCCA (ssRNA, 2'-F C and U; 2'-OH A and G) [ARC591]
[6]
  Kd: 3.4 nM
[7]
  IC50: 6.7 nM
